Results taken from article PMC3587828 (The Journal of Cell Biology, 2013).

Tests used:
[1] = molecular target: T1, MBP–Morg1 (human, UniProt Q9BRX9 1-315); assay: pull-down
T1 sequence (looked up): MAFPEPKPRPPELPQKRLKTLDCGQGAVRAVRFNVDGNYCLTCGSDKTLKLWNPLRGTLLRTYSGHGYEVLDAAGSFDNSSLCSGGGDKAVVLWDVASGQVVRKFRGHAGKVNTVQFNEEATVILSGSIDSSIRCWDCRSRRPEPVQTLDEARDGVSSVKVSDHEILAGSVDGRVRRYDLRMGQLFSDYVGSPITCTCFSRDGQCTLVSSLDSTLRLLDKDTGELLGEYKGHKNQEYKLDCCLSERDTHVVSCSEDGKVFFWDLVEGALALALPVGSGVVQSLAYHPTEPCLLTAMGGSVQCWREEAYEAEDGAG

[2] = molecular target: recombinant Cdc42 (Q61L), GST-free (human, UniProt P60953 1-188, Q61L | C188S); assay: pull-down
Chain of recombinant Cdc42 (Q61L), GST-free (P60953 1-188 Q61L/C188S): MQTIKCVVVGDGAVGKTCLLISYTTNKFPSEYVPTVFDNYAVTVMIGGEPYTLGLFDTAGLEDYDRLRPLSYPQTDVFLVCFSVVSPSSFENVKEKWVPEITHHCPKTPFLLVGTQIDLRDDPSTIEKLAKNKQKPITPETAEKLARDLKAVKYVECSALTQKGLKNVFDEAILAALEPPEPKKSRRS

B1: GST–Par6β (126–254) (domain or fragment, human, UniProt Q9BYG5 126-254, looked up)
chain: RKKPHIVISMPQDFRPVSSIIDVDILPETHRRVRLYKYGTEKPLGFYIRDGSSVRVTPHGLEKVPGIFISRLVPGGLAQSTGLLAVNDEVLEVNGIEVSGKSLDQVTDMMIANSRNLIITVRPANQRNN
B1: binds [1]; binds [2].
